This passage reports self-cleavage results from the RNAGym collection of RNA variant scans (doi:10.7554/elife.80360).

B1: HDV Ribozyme (parent)
chain: GGCCGGCAUGGUCCCAGCCUCCUCGCUGGCGCCGGCUGGGCAACAUUCCGAGGGGACCGUCCCCUCGGUAAUGGCGAAUGGGACCCA

This series covers variants of B1. Kind of series: self-cleavage, relative activity (ratio to wild type); higher = more cleavage; co-transcriptional.
Consider A8C C19A, for which the self-cleavage was 0.0449.
Under A42G C57A stands 0.527; under U37A A45U, 0.175; under G31U A56U, 0.489.
The same measure for G5A C15U: 0.0475.
Under A51C U72G stands 0.529; under G54U G82A, 0.277; under G6U A70G, 0.571.
Regarding U23A G73U, the self-cleavage is 0.464.
The same measure for U46G A78U: 0.0573.
Under C33U G52A stands 0.71.
Under C4G U65G stands 0.231; under A70C G80C, 0.135.
With U60C C86G, the self-cleavage worked out at 0.982.
For the variant G1U G5C, the self-cleavage was found to be 0.755.
Turning to U9C G67C, the self-cleavage is 0.703.
The same measure for G59A C86A: 0.842.
The same measure for G25A G53A: 0.245; for G2U C85G: 0.0966; for G5A C14A: 0.
Consider G25A G50U, for which the self-cleavage was 0.242.
The same measure for G35C C62U: 0.0665; for G55U U72A: 0.648.
Turning to C32A A45C, the self-cleavage is 0.0875.
Regarding G17U G54C, the self-cleavage was 0.536.
Consider G80U A87C, for which the self-cleavage amounted to 0.192.
As to G80U A87G, the self-cleavage was 0.272.
The same measure for G39U A43C: 0.237; for A16U A71C: 0.942; for G2A C13G: 0.0282.
Take C32A A71U: the self-cleavage was 0.222.
For the variant C64A U69A, the self-cleavage turned out to be 1.06.
Turning to C7U C30U, the self-cleavage is 0.483.
For the variant C36G A71C, the self-cleavage is 0.0475.
The same measure for G73U U79A: 0.131.
Under G55C G68A stands 0.967.
In the case of U27C G82U, the self-cleavage turned out to be 0.208.
As to C48A G52U, the self-cleavage was 0.974.
As to C33G A83C, the self-cleavage was determined as 0.252.
The same measure for G5A G55U: 0.122; for G5A A87C: 0.124.
The same measure for G10U U60C: 0.767; for C41U C64A: 0.906.
With G6C A87U, the self-cleavage came to 0.282.
The same measure for U9G G34A: 0.344; for A8U C63G: 0.646; for C15A C44G: 0.431.
C24G G76U: the self-cleavage worked out at 0.339.
C19A C48U: the self-cleavage was determined as 0.0683.
Under G38U A45U stands 0.158.
The same measure for U9G C41U: 0.997; for C75G G81A: 0.0332; for G76U A83C: 0.755.
The same measure for U27A C33A: 0.256.
Take C48G G82U: the self-cleavage was 0.284.
The same measure for G28C G73A: 0; for C13A C41G: 0.0504; for G54A G81U: 0.229.
As for C4A A71U, the self-cleavage was 0.259.
Under G17U U79C stands 0.584; under A70C U72C, 0.369.
For the variant C13A A16U, the self-cleavage turned out to be 0.536.
In the case of A70U A71G, the self-cleavage was found to be 1.09.
Under C19A U65G stands 0.189.
Under C32G C75G stands 0.
On to U37A G76A, for which the self-cleavage amounted to 0.172.
The same measure for C7A C15U: 0.283.
The same measure for G10C G81A: 0.131.
For the variant C3G A51U, the self-cleavage turned out to be 0.768.
Regarding C13A C61A, the self-cleavage was found to be 0.163.
Take C66G G81U: the self-cleavage amounted to 0.214.
The same measure for G25C C66G: 0.0978; for G40A A43C: 0.601; for G38A U65G: 0.181.
Under A56G A71U stands 0.957.
The same measure for A56G A71G: 0.918.
As for G25A U60A, the self-cleavage stood at 0.295.
Take G11A A78U: the self-cleavage was 0.111.
Under C4A G80C stands 0; under G40C A45U, 0.211.
As to C75A C84U, the self-cleavage amounted to 0.0545.
G1A G59U: the self-cleavage worked out at 0.214.
Consider A42U A78C, for which the self-cleavage turned out to be 0.169.
Under C3G G6A stands 0.0923.
As to G17C C57G, the self-cleavage came out at 0.516.
Consider C33G A42C, for which the self-cleavage was 0.142.
C19U C49U: the self-cleavage was 0.131.
With G55C C61G, the self-cleavage stood at 0.959.
In the case of G53U C85A, the self-cleavage is 0.931.
The same measure for C18A C48G: 0.102; for C26U A56G: 1.08; for G40C C57U: 0.354.
Under C19U U23G stands 0.237.
With G28C C48A, the self-cleavage is 0.166.
As for G28A A56C, the self-cleavage is 0.
Under C15A G38A stands 0.0978.
Under G17A C58A stands 0.746; under G39U A87C, 0.646.
Take G55A C66G: the self-cleavage was 0.843.
On to G2U U69A, for which the self-cleavage is 0.0222.
The same measure for U47C C86U: 0.712.
The same measure for G11U G40C: 0.0181.
Under G74A C85U stands 0.462; under C57G G82A, 0.302; under C24U C75U, 0.197.
With G50C A78U, the self-cleavage is 0.131.
Turning to U47A C48U, the self-cleavage worked out at 0.923.
For the variant A51U G80C, the self-cleavage came out at 0.208.
The same measure for C15G C24A: 0.482; for G1A U23A: 0.217.
For the variant G76A C86A, the self-cleavage amounted to 0.855.
Under C41G G50C stands 0.554; under U27G C48U, 0.942.
G67A G82C: the self-cleavage turned out to be 0.224.
Turning to C18A C61A, the self-cleavage was 0.0615.
The same measure for C33G G74A: 0.0449.
The same measure for U9A G81C: 0.35; for C62U A78C: 0.0936; for C32G C84A: 0.0386.
Under G1U G68A stands 0.496.
U12A C57A: the self-cleavage worked out at 0.256.
Under U20C G73U stands 0.0875.
As for C36G A45U, the self-cleavage turned out to be 0.0791.
For the variant G52U U79G, the self-cleavage is 0.521.
With C49A G74A, the self-cleavage was 0.288.
As to C36G G59C, the self-cleavage amounted to 0.0755.
Under A45U C84G stands 0.332; under A16C U72A, 0.437.
Under G17A C57G stands 0.674; under G10A C30G, 0.0777; under C41G G81C, 0.138.
The same measure for C30A U79A: 0.386; for G74U A87U: 0.506.
Consider G54C U69G, for which the self-cleavage was 1.07.
Under A45C C86U stands 0.779; under C49A C86G, 0.906; under G54A U69C, 0.95.
In the case of C19U C26U, the self-cleavage is 0.718.
As to C26A C58G, the self-cleavage worked out at 1.09.
For the variant G40C G80A, the self-cleavage came out at 0.0723.
As for C41G A51U, the self-cleavage is 1.18.
Regarding G39C A70C, the self-cleavage came to 0.175.
The same measure for C3U C15G: 0.6; for C19G U60A: 0.0959; for C41A G59C: 0.911.
Under U12C U20A stands 0.0723.
The same measure for C18G A77G: 0.0755.
Turning to A42C U79C, the self-cleavage stood at 0.124.
On to C4U G29A, for which the self-cleavage turned out to be 0.
Under G38A G67A stands 0.0665.
The same measure for C7G G39A: 0.147.
Under C49U G74A stands 0.443; under C26G C30G, 0.
Turning to G2A A70C, the self-cleavage came to 0.157.
The same measure for G11U A87G: 0.404; for G52A A87G: 0.86; for C26U C49G: 0.973.
Turning to C30U C85G, the self-cleavage was found to be 0.0978.
Regarding C22G A70C, the self-cleavage came to 0.0489.
Under U9A U37A stands 0; under G39C U47C, 0.166.
The same measure for A8G G11U: 0.0739; for G34A A43G: 0.125; for C48A G67C: 0.856.
The same measure for A42G G82A: 0.158.
Take G54A U60C: the self-cleavage worked out at 1.06.
The same measure for C18A C21U: 0.089.
